The source of these data is publication PMC8133395 (Cell reports, 2021).

For this test, the target named is T1, EBOV sGP (Mayinga) (Zaire ebolavirus, Mayinga, GenBank …, UniProt P60170).
T1 construct: source: FreeStyle-293-F, transiently transfected, purified (Strep-Tactin, SEC)
Kind of test: ELISA. The following applies: both partners purified. Background: In an ELISA, binding on a coated surface is turned into a signal by an enzyme label.

Substitutions are numbered along the chain they refer to.

T1 sequence (P60170 33-314): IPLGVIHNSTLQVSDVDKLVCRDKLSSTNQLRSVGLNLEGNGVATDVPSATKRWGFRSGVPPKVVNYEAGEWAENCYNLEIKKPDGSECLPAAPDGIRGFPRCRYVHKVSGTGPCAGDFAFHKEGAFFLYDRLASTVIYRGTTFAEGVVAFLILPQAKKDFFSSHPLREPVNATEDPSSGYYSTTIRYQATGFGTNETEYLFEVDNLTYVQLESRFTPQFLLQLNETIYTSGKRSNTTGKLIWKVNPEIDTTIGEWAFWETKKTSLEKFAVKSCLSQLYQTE

B1: BDBV-43 (recombinant IgG1) (antibody, V domains shown)
VH: QVQLVQSGAEVKKPGSSVKVSCRASGDSFSRKYGISWVRQAPGQGFEWMGTIMPIVGLTTSAQKFQGRVTITADKSTSTAHMELNSLTSEDTAIYYCARDEIIGARPHWFDSWGQGTLVTVSS
VL: EIVMTQSPAIMSVSPGKRATLSCRASQSVSSNLAWYQRKPGQAPRLLIYGSSTRATGIPARFSGSGSGTEFTLTISSLQSEDFAVYYCLQYYNWPRTFGQGTKVEIK
notes: source: FreeStyle-293-F, transiently transfected, purified (mAb Select, SEC)
As for B1, the binding result is on record as “binds”.

B2: BDBV-329 (recombinant IgG1) (antibody, V domains shown)
VH: QVQLVQSGAEVKKPGSSVKVSCKASGGTFDTYAISWVRQAPGQGLEWMGGIIPVLGIVDYAQKFQGRVTITAAKFTNIAYMELSSLRSEDAAVYYCARGLRSLSPRGQEGPTPAPGWRRAQYHYYYMDVWGTGTLVTVSS
VL: EIVMTQSPGTLSLSPGERATLSCRASQSVSSNYLAWYQQKPGQAPRLLIYGASSRATGIPDRFSGSGSGPDFTLTISRLEPEDFAVYYCQQYGSSPGTFGGGTKVEIK
notes: IgG1; also called BDB-329; source: ExpiCHO, transiently transfected, purified (HiTrap MabSelect Sure)
For the molecule B2, the binding result is given as “binds”.

B3: EBOV-437 (recombinant IgG1) (antibody, V domains shown)
VH: QVQLVQSGAEVKKPGSSVKVSCKASGGTFSRDIFSWVRQAPGQGLEWMGGIIPIFGTANYAQKFQGRVTITADKSTSTVFMELSGLRSEDTAVYFCARGPPLRGERSWFGESEKYDYFYMDVWGKGTTVTVSS
VL: B2 VL with E1Q, M4L, S31N, N32S, P70T, T75S, S94T, G97C, G101Q, V105L
notes: IgG1; source: ExpiCHO, transiently transfected, purified (HiTrap MabSelect Sure)
Consider B3, for which the binding result is recorded as “binds”.

B4: BDBV-289 (recombinant IgG1) (antibody, V domains shown)
VH: QVQLVQSGAEVKKPGSSVKVSCKASGATFGSDTVTWVRQAPGQGLEWMGGIIPFFGEANYAQRFQGRVTITADKSTNTAYMELSSLRSEDTAVYFCARQINEMATFGEIHYYTYMDVWGQGTLVTVSS
VL: GSELTQDPAVSVALGQTVRITCQGDSLRNYYASWYQQKPRQAPVLVFYGKNNRPSGIPDRFSGSSSGNTASLTISGAQAEDEADYYCNSRDSSSNHLVFGGGTKLTVL
notes: IgG1; source: FreeStyle-293-F, transiently transfected, purified (mAb Select, SEC)
Take B4: the binding result is “binds”.

B5: EBOV-296 (recombinant IgG1) (antibody, V domains shown)
VH: QVQLVESGPGLVKPSQTLSLICTVSGGSISSGDFYWSWIRQPPGKGLEWIGFFYYSGITYYNPSLKSRVSISRDTSTNQFSLKLRSVTAADTAVYYCARVRGGRITLGQGDMYYYSGMDVWGQGTLVTVSS
VL: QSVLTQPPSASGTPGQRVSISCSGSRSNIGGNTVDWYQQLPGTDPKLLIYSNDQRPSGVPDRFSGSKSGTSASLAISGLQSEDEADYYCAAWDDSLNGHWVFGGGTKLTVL
notes: as for B1
On to B5, for which the binding result is given as “binds”.

B6: EBOV-442 (recombinant IgG1) (antibody, V domains shown)
VH: EVQLVESGGGLVKPGGSLRLSCTGSGGTGFTFKYAGMSWVRQAPGKGPEWIGRIKSRIDGGTTDYAAPVKDRFIVSRDDSRNTLYLQMNSLKTEDTAVYYCATGSGKGPSASFGESYYYYDFINVWGKGTTVTVSS
VL: ESVLTQSPGTLSLSPGERATLSCRASQSISRKYLAWYQQKPGQAPRLLIYGSSSRATGIPDRFSGSGSGTDFTLTISRLEPEDFAVYYCHQYESSPWTFGQGTKVEIK
notes: as for B3
Turning to B6, the binding result was “binds”.

B7: EBOV-293 (recombinant IgG1) (antibody, V domains shown)
VH: QVQLVQSGAEVKKPGSSVKVSCKASGGTFIDYTYNWVRQAPGQGLVWMGRVVPGLGLSSYAQQFEDRVTITAAKSTSTVYMELRGLTSEDTAMYYCARDTASFGWLPFAFWGQGTLVTVSS
VL: QTVMTQSPGTLSLSPGERATLSCGVSQSISSTYFAWYQQKVGQAPRLLIYGASNRASGIPDRFSGSASGTDFTLTISRVEPEDFAVYYCQQYGSSPTFGQGTRLEIK
notes: as for B1
Regarding B7, the binding result is on record as “binds”.

B8: EBOV-237 (recombinant IgG1) (antibody, V domains shown)
VH: QVQLQESGPGLVKPSGTLSLTCAVSGGSISNGIWWSWVRQPPGKGLEWIGEIYHSGSTNYSPSLKSRVTISLDKSKNQFSLKLNSVTAADTAVYYCARAPSQFDFSDWLVPQGAMFRGHYIDYWGQGTLVTVSS
VL: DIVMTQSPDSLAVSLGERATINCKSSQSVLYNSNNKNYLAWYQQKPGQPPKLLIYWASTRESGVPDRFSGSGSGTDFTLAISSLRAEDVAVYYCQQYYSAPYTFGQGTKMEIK
notes: as for B3
With B8, the binding result is given as “binds”.
